Results published in publication PMC10287707.

Assays:
TIA1 RRM2_3 = molecular target: T1, TIA1 RRM2_3 (human, UniProt P31483-2 93-274); assay: EMSA; EMSA: 10 mM sodium phosphate pH 6.5, 50 mM NaCl, 1 mM DTT, 1 U/ul SUPERase-In, room temperature 20 min, native 1.2% agarose; RNA annealed in 10 mM Tris-HCl pH 7.5, 100 mM KCl; conditions: protein: recombinant, tags: His6-SUMO removed by SUMO protease, label: 5'-Cy3
T1 sequence: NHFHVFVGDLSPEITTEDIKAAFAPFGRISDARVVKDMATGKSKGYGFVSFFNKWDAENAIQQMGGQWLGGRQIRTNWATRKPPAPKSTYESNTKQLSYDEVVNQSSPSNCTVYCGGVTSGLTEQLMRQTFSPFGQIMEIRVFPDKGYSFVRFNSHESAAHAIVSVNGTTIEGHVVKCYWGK

TIA1 RRM1-3 = molecular target: T2, TIA1 RRM1-3 (human, UniProt P31483-2 1-274); assay: as above; conditions: protein: recombinant; tags: His6-SUMO, removed (same protocol as RRM2_3); label: 5'-Cy3; single strand
T2 sequence: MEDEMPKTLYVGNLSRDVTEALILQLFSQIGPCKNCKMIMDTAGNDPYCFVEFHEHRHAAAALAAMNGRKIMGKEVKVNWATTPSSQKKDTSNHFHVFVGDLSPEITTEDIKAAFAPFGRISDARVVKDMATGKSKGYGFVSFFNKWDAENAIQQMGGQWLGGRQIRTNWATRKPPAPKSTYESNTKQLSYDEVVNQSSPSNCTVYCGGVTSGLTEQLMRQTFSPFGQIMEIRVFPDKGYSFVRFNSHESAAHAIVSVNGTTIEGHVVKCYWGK

## UUUUUUUUUUU (ssRNA) [U11]
TIA1 RRM2_3; single strand
  binding result: binds
TIA1 RRM1-3
  binding result: binds

## UUUCGAUCUCUUGUAGAUC (structured_RNA) [SL2]
TIA1 RRM2_3; hairpin, 5-nt loop
  Kd: 2470 ± 370 nM

## UUUGAUUUUAACGAACUUAAA (structured_RNA) [MERS SL3]
TIA1 RRM2_3
  Kd: 300 ± 20 nM

## UGUUCUCUAAACGAACUUUAA (structured_RNA) [SL3]
TIA1 RRM2_3
  Kd: 780 ± 90 nM

## UCACUCUUGAACGAACUUAAA (structured_RNA) [RousettusHKU9 SL3]
TIA1 RRM2_3
  Kd: 410 ± 20 nM

## UUUCGAUCUCUUGUAGAUCUGUUCUCUAAACGAACUUUAAAAUCU (structured_RNA) [SL2+SL3]
TIA1 RRM2_3; two hairpins
  Kd: 430 ± 50 nM
